Data reported in patent publication US20230303690A1 (published 2023).
Residue numbers refer to the chain shown, from its start.

T1: human LAG3 expressed on cells (human, UniProt P18627 23-525)
T1 sequence (looked up): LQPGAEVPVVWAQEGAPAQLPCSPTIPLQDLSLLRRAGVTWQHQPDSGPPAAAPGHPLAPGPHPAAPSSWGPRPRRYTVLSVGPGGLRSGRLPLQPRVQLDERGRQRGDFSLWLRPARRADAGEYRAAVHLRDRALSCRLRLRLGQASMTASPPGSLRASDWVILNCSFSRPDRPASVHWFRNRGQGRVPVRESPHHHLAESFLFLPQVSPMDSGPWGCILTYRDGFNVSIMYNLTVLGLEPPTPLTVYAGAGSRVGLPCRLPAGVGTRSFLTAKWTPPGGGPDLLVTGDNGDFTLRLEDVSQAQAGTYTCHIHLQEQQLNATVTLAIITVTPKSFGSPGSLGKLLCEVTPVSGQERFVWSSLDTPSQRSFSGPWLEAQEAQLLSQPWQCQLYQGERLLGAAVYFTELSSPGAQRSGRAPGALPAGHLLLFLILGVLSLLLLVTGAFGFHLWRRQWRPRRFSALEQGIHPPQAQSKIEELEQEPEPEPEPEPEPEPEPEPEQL

B1: sdAb fusion 25-17-3 (Fc fusion, not shown: a dimerising Fc or GST)
chain: QLQLVESGGGLVQAGGSLRLSCAASGSIESFSFMGWYRQAPGKQRELVAGFTGAASLSFSTYTDAVKGRFTISRDNAKNTVYLQMNSLKPEDTAVYFCNVDPWSQSWPGRYWGQGTQVTVSSGGGGSGGGGSGGGGSQLQLVESGGGLVQPGGSLRLSCAASGLTLDGYAIGWFRQAPGKEREGLACISGSDGSTHYLDSVKGRFTISRDNGKNTMALQMNSLQFGDTAIYYCAARRGSCSGSWTYWGQGTQVTVSSEPKSCDKTHTCPPCPAPELLG
B2: sdAb fusion 25-2015-1 (Fc fusion, not shown: a dimerising Fc or GST)
chain: QLQLVESGGGLVQAGGSLRLSCAASGSIESFSFMGWYRQAPGKQRELVAGFTGAASLSFSTYTDAVKGRFTISRDNAKNTVYLQMNSLKPEDTAVYFCNVDPWSQSWPGRYWGQGTQVTVSSGGGGSQLQLVESGGGLAQTGGSLRLSCAAAGFTFDDTATGWFRQAPGKNREGVACISSSDGRIHYIDSAKGRFTISKDNAKKTVYLQMDSLKPEDTAVYYCAAARKGSTDCQGAIWGSWGQGTQVIVSSEPKSCDKTHTCPPCPAPELLG
B3: sdAb fusion 25-2015-2 (Fc fusion, not shown: a dimerising Fc or GST)
chain: QLQLVESGGGLVQAGGSLRLSCAASGSIESFSFMGWYRQAPGKQRELVAGFTGAASLSFSTYTDAVKGRFTISRDNAKNTVYLQMNSLKPEDTAVYFCNVDPWSQSWPGRYWGQGTQVTVSSGGGGSGGGGSQLQLVESGGGLAQTGGSLRLSCAAAGFTFDDTATGWFRQAPGKNREGVACISSSDGRIHYIDSAKGRFTISKDNAKKTVYLQMDSLKPEDTAVYYCAAARKGSTDCQGAIWGSWGQGTQVIVSSEPKSCDKTHTCPPCPAPELLG
B4: sdAb fusion 25-2015-3 (Fc fusion, not shown: a dimerising Fc or GST)
chain: QLQLVESGGGLVQAGGSLRLSCAASGSIESFSFMGWYRQAPGKQRELVAGFTGAASLSFSTYTDAVKGRFTISRDNAKNTVYLQMNSLKPEDTAVYFCNVDPWSQSWPGRYWGQGTQVTVSSGGGGSGGGGSGGGGSQLQLVESGGGLAQTGGSLRLSCAAAGFTFDDTATGWFRQAPGKNREGVACISSSDGRIHYIDSAKGRFTISKDNAKKTVYLQMDSLKPEDTAVYYCAAARKGSTDCQGAIWGSWGQGTQVIVSSEPKSCDKTHTCPPCPAPELLG
B5: combination of sdAbs 25 and 2015 (other)
VHH 1: QLQLVESGGGLVQAGGSLRLSCAASGSIESFSFMGWYRQAPGKQRELVAGFTGAASLSFSTYTDAVKGRFTISRDNAKNTVYLQMNSLKPEDTAVYFCNVDPWSQSWPGRYWGQGTQVTVSS
VHH 2: QLQLVESGGGLAQTGGSLRLSCAAAGFTFDDTATGWFRQAPGKNREGVACISSSDGRIHYIDSAKGRFTISKDNAKKTVYLQMDSLKPEDTAVYYCAAARKGSTDCQGAIWGSWGQGTQVIVSS
B6: combination of sdAbs 25 and 18 (other)
VHH 1: B5 VHH 1
VHH 2: QVQLVESGGGLVQPGGSLRLSCAASGFTLNEHAIGWFRRAPGKEREGVSCISSSDGSTYYHDSVKGRFNMSRDDAKNSVYLQMSSLKPEDTAIYYCAAALGRDCQGGQWKTSSWGQGTQVTVSS
B7: sdAb No. 17-H1 (VHH)
VHH: QLQLVESGGGLVQPGGSLRLSCAASGLTLDAYAIGWFRQAPGKEREGLACISGSDGSTHYLDSVKGRFTISRDNGKNTMALQMNSLQFGDTAIYYCAARRGSCSGSWTYWGQGTQVTVSS
notes: Modified sdAb No. 17 (CDR1 DG to DA); not shown: Fc part implied by anti-human IgG1 Fc detection
B8: sdAb No. 17-H4 (VHH)
VHH: B7 VHH with A31G, D55E
notes: Modified sdAb No. 17 (CDR2 DG to EG); not shown: Fc part implied by anti-human IgG1 Fc detection
B9: sdAb No. 17-H3 (VHH)
VHH: B7 VHH with A31G, G56A
notes: Modified sdAb No. 17 (CDR2 DG to DA); not shown: Fc part implied by anti-human IgG1 Fc detection
B10: sdAb No. 17-H2 (VHH)
VHH: B7 VHH with D30E, A31G
notes: Modified sdAb No. 17 (CDR1 DG to EG); not shown: Fc part implied by anti-human IgG1 Fc detection

molecular target: human LAG3 expressed on cells (human) (UniProt P18627); assay: cell-based or functional assay

| Binder | Efficacy (Normalized to BMS) [%] | IL-2, % of BMS, at 0.001016105 ug/mL [%] | IL-2, % of BMS, at 0.003048316 ug/mL [%] | IL-2, % of BMS, at 0.009144947 ug/mL [%] | IL-2, % of BMS, at 0.027434842 ug/mL [%] | IL-2, % of BMS, at 0.082304527 ug/mL [%] | IL-2, % of BMS, at 0.24691358 ug/mL [%] | IL-2, % of BMS, at 0.740740741 ug/mL [%] | IL-2, % of BMS, at 2.222222222 ug/mL [%] | IL-2, % of BMS, at 6.666666667 ug/mL [%] |
| --- | --- | --- | --- | --- | --- | --- | --- | --- | --- | --- |
| B1 | 102 | 0.000639 | 5.71 | 7.44 | 8.91 | 11.7 | 12.1 | 28.9 | 62.8 | 93.2 |
| B2 | 114 | 0.000292 | 10.8 | 7.32 | 30.4 | 10.4 | 35.6 | 59.7 | 97.5 | 112 |
| B3 | 101 | 0.000334 | -15.6 | -12.5 | 20.8 | -0.802 | 20.9 | 59.4 | 83.2 | 88.3 |
| B4 | 113 | 0 | 10.7 | 7.28 | 30.2 | 10.3 | 35.4 | 59.3 | 96.8 | 112 |

same assay, conditions: not given

| Binder | IL-2, % of BMS, at 20 ug/mL [%] | Jurkat T-hLAG3 Assay EC50 [nM] |
| --- | --- | --- |
| B1 | 103 | 18.4 |
| B2 | 117 | 8.01 |
| B3 | 96.6 | 5.13 |
| B4 | 116 | 8.01 |

molecular target: T1, human LAG3 expressed on cells; assay: cell-based or functional assay

| Binder | IL-2, % of BMS, at 0.005080526 ug/mL [%] | IL-2, % of BMS, at 0.015241579 ug/mL [%] | IL-2, % of BMS, at 0.045724737 ug/mL [%] | IL-2, % of BMS, at 0.137174211 ug/mL [%] | IL-2, % of BMS, at 0.411522634 ug/mL [%] | IL-2, % of BMS, at 1.234567901 ug/mL [%] | IL-2, % of BMS, at 3.703703704 ug/mL [%] | IL-2, % of BMS, at 11.11111111 ug/mL [%] | IL-2, % of BMS, at 33.33333333 ug/mL [%] | IL-2, % of BMS, at 100 ug/mL [%] |
| --- | --- | --- | --- | --- | --- | --- | --- | --- | --- | --- |
| B5 | 0.0473 | 0.883 | -2.03 | 0.439 | 3.96 | 18.9 | 43.6 | 52.5 | 50.7 | 62.2 |
| B6 | 0 | 1.97 | 13.2 | 14.6 | 32.6 | 45.4 | 52.9 | 52.5 | 65 | 66.5 |

molecular target: T1, human LAG3 expressed on cells; assay: cell ELISA, 293T-hLAG3 cells
Description: Each well was treated with stimulants. The cells were then fixed and blocked with Blocking buffer. The Primary antibodies were added. The wells were washed and a HRP-conjugated secondary antibody was added. The wells were washed with 1x PBS and a solution containing TMB (Biopanda, TMB-S-004) was added. The TMB reacted with HRP to change the color thereof from colorless to blue. An acid stop solution (Solarbio, C1058) was then added to stop the reaction and change the blue color to yellow.
Materials are listed below: [0072] […] 2) Blocking buffer: 1×PBS+3% BSA (Sigma, B2064); [0074] […] [0075] 4) Secondary antibody: Goat anti-human IgG1 Fc antibody, HRP (1:2500, invitrogen, A18817). [0076]

| Binder | EC50 [nM] | OD450 at 0.0045725 ug/ml | OD450 at 0.0137174 ug/ml | OD450 at 0.0411523 ug/ml | OD450 at 0.1234568 ug/ml | OD450 at 0.3703704 ug/ml | OD450 at 1.111111 ug/ml | OD450 at 3.333333 ug/ml | OD450 at 10 ug/ml |
| --- | --- | --- | --- | --- | --- | --- | --- | --- | --- |
| B7 | 1.01 | 0.101 | 0.242 | 0.527 | 0.945 | 1.27 | 1.4 | 1.44 | 1.5 |
| B8 | 0.758 | 0.092 | 0.232 | 0.432 | 0.745 | 0.962 | 0.979 | 0.905 | 1.18 |
| B9 | 1.01 | 0.096 | 0.208 | 0.43 | 0.818 | 1.11 | 1.21 | 1.13 | 1.28 |
| B10 | 1.07 | 0.105 | 0.238 | 0.458 | 0.9 | 1.25 | 1.35 | 1.28 | 1.4 |
